# Assay results published in US20210332115A1 (Sanofi, published 2021).
# Residue numbers refer to the chain shown, from its start.
# B1: VH6/Vk7-IgG4v2-CHO (antibody)
# heavy chain: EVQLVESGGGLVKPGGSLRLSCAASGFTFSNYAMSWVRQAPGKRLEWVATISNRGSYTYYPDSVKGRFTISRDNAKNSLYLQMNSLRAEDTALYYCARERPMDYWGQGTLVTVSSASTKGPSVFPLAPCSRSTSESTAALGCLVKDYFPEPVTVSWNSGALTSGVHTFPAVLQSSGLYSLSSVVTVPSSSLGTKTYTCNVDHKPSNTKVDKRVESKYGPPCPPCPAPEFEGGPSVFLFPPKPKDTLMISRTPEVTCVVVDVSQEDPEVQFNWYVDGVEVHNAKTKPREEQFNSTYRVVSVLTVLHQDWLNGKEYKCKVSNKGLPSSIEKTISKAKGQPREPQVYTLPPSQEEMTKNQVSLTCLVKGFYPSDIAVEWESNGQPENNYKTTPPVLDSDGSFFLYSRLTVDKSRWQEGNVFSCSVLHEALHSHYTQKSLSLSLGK
# light chain: DIQMTQSPSTLSASVGDRVTITCKASQDVGTAVAWYQQKPGKAPKLLIYWASTRHTGVPDRFSGSGSGTDFTLTISSLQAEDFAVYFCHQHSSNPLTFGQGTKLEIKRTVAAPSVFIFPPSDEQLKSGTASVVCLLNNFYPREAKVQWKVDNALQSGNSQESVTEQDSKDSTYSLSSTLTLSKADYEKHKVYACEVTHQGLSSPVTKSFNRGEC
# B2: VH4/Vκ6-IgG4v1 (antibody)
# heavy: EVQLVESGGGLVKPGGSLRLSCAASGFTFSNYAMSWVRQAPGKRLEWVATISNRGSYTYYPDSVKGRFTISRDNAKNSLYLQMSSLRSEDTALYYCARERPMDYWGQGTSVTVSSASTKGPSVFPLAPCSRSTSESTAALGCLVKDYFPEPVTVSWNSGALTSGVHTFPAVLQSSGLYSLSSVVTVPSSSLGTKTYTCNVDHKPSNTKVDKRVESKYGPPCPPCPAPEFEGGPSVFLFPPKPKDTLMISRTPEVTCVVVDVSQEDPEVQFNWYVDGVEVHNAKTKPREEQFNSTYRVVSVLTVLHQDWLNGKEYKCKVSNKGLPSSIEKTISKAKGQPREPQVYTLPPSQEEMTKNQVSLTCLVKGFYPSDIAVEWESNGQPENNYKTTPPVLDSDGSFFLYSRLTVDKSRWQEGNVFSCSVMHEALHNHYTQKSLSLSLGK
# light: B1 light chain with Q3V, T10F, S63T, A80S
# notes: also called VH4/VK6; V46/VK6-IgG4v1
# B3: VH6/Vκ7-IgG4v1 (antibody)
# heavy: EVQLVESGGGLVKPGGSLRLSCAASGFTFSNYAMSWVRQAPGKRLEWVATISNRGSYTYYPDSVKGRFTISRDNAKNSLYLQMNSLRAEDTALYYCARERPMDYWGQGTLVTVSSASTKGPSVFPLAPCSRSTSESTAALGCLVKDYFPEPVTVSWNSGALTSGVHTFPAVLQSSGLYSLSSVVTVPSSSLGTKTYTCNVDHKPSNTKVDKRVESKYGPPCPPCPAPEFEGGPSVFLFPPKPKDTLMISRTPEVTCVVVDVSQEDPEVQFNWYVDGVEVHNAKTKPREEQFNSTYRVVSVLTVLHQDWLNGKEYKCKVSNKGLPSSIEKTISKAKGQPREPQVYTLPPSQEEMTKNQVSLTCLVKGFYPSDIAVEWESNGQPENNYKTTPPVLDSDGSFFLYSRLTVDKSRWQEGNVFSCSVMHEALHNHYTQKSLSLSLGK
# light: B1 light chain
# notes: also called VH6/VK7; VH6/VK7-IgG4v1
# B4: VH4/Vκ7 (antibody, V domains shown)
# VH: EVQLVESGGGLVKPGGSLRLSCAASGFTFSNYAMSWVRQAPGKRLEWVATISNRGSYTYYPDSVKGRFTISRDNAKNSLYLQMSSLRSEDTALYYCARERPMDYWGQGTSVTVSS
# VL: DIQMTQSPSTLSASVGDRVTITCKASQDVGTAVAWYQQKPGKAPKLLIYWASTRHTGVPDRFSGSGSGTDFTLTISSLQAEDFAVYFCHQHSSNPLTFGQGTKLEIK
# notes: Redesigned variant; cloned into the appropriate expression vector (IgG4v1 and kappa were used in the first round)
# B5: VH7/Vκ7 (antibody, V domains shown)
# VH: B4 VH with A40T, G42E, S84N, S88A, S110L
# VL: B4 VL
# notes: Redesigned variant; cloned into the appropriate expression vector (IgG4v1 and kappa were used in the first round); also called VH7/VκK7
# B6: VH6/Vκ6 (antibody, V domains shown)
# VH: B4 VH with S84N, S88A, S110L
# VL: B4 VL with Q3V, T10F, S63T, A80S
# notes: as for B4
# B7: VH4/Vκ6-IgG4v2 (antibody)
# heavy: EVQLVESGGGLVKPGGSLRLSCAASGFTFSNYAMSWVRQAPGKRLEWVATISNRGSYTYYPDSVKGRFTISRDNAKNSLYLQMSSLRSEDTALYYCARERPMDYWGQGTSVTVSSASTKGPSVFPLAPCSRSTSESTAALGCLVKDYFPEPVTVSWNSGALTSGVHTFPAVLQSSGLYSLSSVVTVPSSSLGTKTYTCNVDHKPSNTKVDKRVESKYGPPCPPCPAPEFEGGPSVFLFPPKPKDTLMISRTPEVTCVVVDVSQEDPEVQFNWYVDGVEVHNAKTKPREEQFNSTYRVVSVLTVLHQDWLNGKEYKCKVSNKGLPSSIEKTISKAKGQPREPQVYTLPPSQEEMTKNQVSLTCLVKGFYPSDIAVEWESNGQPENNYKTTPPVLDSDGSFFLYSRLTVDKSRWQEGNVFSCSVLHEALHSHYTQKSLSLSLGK
# light: B1 light chain with Q3V, T10F, S63T, A80S
# notes: also called VH4/VK6-IgG4v2
# Biological target: T1, Homo sapiens factor Bb protein (human, UniProt P00751 260-764)
# T1 construct: Bought from CompTech (A155); also called complement factor Bb; human factor Bb
# Assay: BLI, multi-cycle kinetics, antibody loaded on anti-hIgG Fc sensors, human factor Bb in solution (100 nM to 0.14 nM), 1:1 fit
# Method: Multicycle kinetic analysis was performed on CHO and HEK-produced VH6/VK7-IgG4v2 antibodies using biolayer interferometry. Antibodies were diluted to 10 μg/mL in PBS+ 0.02%. Tween20, 0.1% BSA, 0.05% sodium azide and loaded onto anti-hIgG Fc sensors (pre-equilibrated in the same buffer) for 90 seconds followed by a 60-minute baseline in buffer. Binding of a concentration series of human factor Bb (Complement Technologies, #A155), ranging from 100 nM to 0.14 nM in 2-fold dilutions, was measured in a 300 second association in the same buffer, followed by a 300 second dissociation step.
# T1 sequence (P00751 260-764 limits assumed): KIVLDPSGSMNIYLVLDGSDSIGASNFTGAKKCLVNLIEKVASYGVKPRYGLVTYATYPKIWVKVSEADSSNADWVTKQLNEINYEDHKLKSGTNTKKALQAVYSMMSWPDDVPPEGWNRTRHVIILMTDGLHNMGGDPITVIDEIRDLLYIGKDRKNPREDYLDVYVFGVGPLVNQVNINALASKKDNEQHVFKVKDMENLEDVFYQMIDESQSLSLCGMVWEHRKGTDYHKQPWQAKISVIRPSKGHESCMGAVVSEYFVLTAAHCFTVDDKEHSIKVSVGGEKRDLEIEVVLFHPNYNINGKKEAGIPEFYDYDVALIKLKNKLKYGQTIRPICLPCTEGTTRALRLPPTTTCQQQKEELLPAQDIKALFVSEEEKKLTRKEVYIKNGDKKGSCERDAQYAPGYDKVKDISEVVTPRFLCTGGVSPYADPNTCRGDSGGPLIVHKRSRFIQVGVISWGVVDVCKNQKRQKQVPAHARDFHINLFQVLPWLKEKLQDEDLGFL
row,Kd,Binder
1,2.7 nM,B1

# Biological target: T1, Homo sapiens factor Bb protein
# Assay: BLI Octet, biotinylated antibody on SA biosensors
# Method: (§1) Briefly, biotinylated antibodies were loaded onto SA Biosensors equilibrated in PBS, 0.1% BSA, 0.02% Tween-20 (assay buffer). After a 60 second baseline in assay buffer, antibodies were loaded onto the probes for 180 seconds, followed by another 60 second baseline. Association to human (Comptech) or cynomolgus monkey factor Bb (purified in-house) was measured for 300 seconds, followed by a 300 second dissociation. Kinetic parameters were calculated by the Octet Analysis software using a 1:1 binding model.
row,Kd,Binder
1,1.6 nM,B2
2,1.9 nM,B3
3,1.9 nM,B4
4,2.9 nM,B5
5,1.9 nM,B6

# Biological target: T1, Homo sapiens factor Bb protein
# Assay: SPR single cycle kinetics; against cynomolgus monkey factor Bb
# Method: (§2) The ability of VH4/VK6 and VH6/VK7 to bind to zymogen factor B and factor Bb from both human and cynomolgus monkey was determined by surface plasmon resonance using a Biacore T200. Human factor B and factor Bb were purchased from Comptech and cynomolgus monkey factor B and factor Bb were purified in-house. Briefly, the monoclonal antibodies were captured on a Biacore Series S Protein A chip in HBSP+ (10 mM HEPES, 150 mM NaCl, 0.05% P20 pH 7.4) at a flow rate of 30 μL/min. A five-point concentration series of each analyte was tested for binding using single cycle kinetics with a contact time of 180 seconds per concentration followed by a 600 sec dissociation at 25° C. and a flow rate of […]. Both human and cynomolgus monkey factor B started at a concentration of 500 nM followed by 2-fold dilutions, while human and cynomolgus monkey factor Bb started at concentrations of 30 nM and 150 nM, respectively, followed by 2-fold dilutions. Data were analyzed using the Biacore evaluation software using a 1:1 binding model. […] Binding to human or cynomolgus monkey factor B was barely detectable and the small signal that was observed was dominated by non-specific binding.
row,fold higher affinity for human factor Bb compared to cynomolgus monkey factor Bb,Binder
1,~10 fold,B7

# Biological target: T1, Homo sapiens factor Bb protein
# Assay: SPR single cycle kinetics, antibody on Protein A chip, antigen analyte
# Method: as §2
Kd,koff,kon,Binder
2.26 nM,0.000925 s⁻¹,410000 M⁻¹ s⁻¹,B7

# Biological target: T1, Homo sapiens factor Bb protein
# Assay: BLI Octet, biotinylated antibody on SA biosensors
# Remark: another data set of the same source
# Method: as §1
# To determine whether the modification of the Fc portion of the antibodies affected affinity and species cross-reactivity, VH4/VK6-IgG4v2 and VH6/VK7-IgG4v2 were tested alongside their parental antibodies, VH4/VK6 and VH6/VK7, respectively, for their ability to bind human and cynomolgus monkey factor Bb by BLI. VH4/VK6-IgG4v2 and VH6/VK7-IgG4v2 contain mutations in the Fc region that increase the affinity for an Fc receptor.
row,Kd,Binder
1,1.6 nM,B2
2,1.6 nM,B7
3,1.7 nM,B3

# Biological target: T1, Homo sapiens factor Bb protein
# Assay: SPR multi-cycle kinetics; ratio against VH0/Vκ0 on the same chip
# Method: (§3) Antibodies were diluted in running buffer to a final concentration of 0.5 μg/ml. At the start of each cycle, antibodies were loaded onto Fc2, Fc3 and Fc4 of the Protein A chip (GE Healthcare, Little Chalfont, UK). IgGs were captured at a flow rate of 10 μl/min to give an immobilisation level (RL) of ˜63 RU, the theoretical value to obtain an Rmax of ˜50 RU. The surface was then allowed to stabilize. Kinetic data was obtained with factor Bb as analyte and using a flow rate of 30 μl/min to minimize any potential mass transfer effects. Multiple repeats of a blank and a repeat of a single concentration of the analyte were programmed into the kinetic run in order to check the stability of both the surface and analyte over the kinetic cycles. For kinetic analysis, a two-fold dilution range was selected from 12. 5 nM to 0. 391 nM factor Bb. The association phase of factor Bb was monitored for 360 seconds and the dissociation phase was monitored for 600 seconds. Regeneration of the Protein A surface was conducted using two injections of 10 mM glycine-HCL pH 1. 5. The signal from the reference channel Fc1 was subtracted from that of Fc2, Fc3 and Fc4 to correct for differences in non-specific binding to a reference surface, and a global Rmax parameter was used in the 1-to-1 binding model.
# (§4) The sensorgrams and fitted data for the binding of chimeric antibodies and humanized variants to factor Bb are shown in FIGS. 4A-4C. The relative KD was calculated by dividing the KD of the humanized variants by that of the chimeric antibody on the same chip. The kinetic parameters measured for the interaction of factor Bb with chimeric antibodies and humanized variants are shown in Table 10.
row,Relative KD,Binder
1,1.08,B2
2,2.98,B3
3,1.31,B4
4,5.01,B5
5,2.71,B6

# Biological target: T1, Homo sapiens factor Bb protein
# Assay: competition ELISA on coated factor Bb; competitor murine parental antibody
# Method: Factor Bb was diluted in 1× PBS to 1.0 μg/ml and 100 μl/well was coated overnight at 4° C. on a 96-well ELISA plate. The following day the plates were blocked for two hours at room temperature with 1% casein/PBS before washing 2× with PBS pH 7.4. In a 96-well dilution plate a fixed concentration of murine parental antibody (0.5 μg/ml, final concentration) was added in equal volume to a four-fold titration series of test antibody (starting from 45 μg/ml to 0.01 μg/ml, final concentration) diluted in blocking buffer. After washing the plate 3× with PBS-T, 100 μl of chimeric/test antibody mix was added to the ELISA plate. After incubating at room temperature for one hour, the plate was washed 3× with PBS-T and 100 μl of anti-mouse IgG Fc-Specific HRP (Sigma, Dorset, UK) diluted 1:1000 in PBS-T was applied for one hour at room temperature to detect bound mouse antibody. For color development, the plate was washed 3× with PBS-T following which 100 μl of TMB substrate was added and incubated for approximately five minutes at room temperature. The reaction was stopped with 50 μl of 3.0 M hydrochloric acid and absorbance was read immediately using a DYNEX ® plate reader at 450 nm.
# IC50 values were calculated for each variant and relative IC50 values were calculated by dividing the IC50 of the humanized variant by that of the chimeric antibody assayed on the same plate (Table 11).
row,IC50,Binder
1,1.02 nM,B2
2,0.82 nM,B3
3,0.75 nM,B4
4,1.43 nM,B5
5,0.93 nM,B6

# Biological target: T1, Homo sapiens factor Bb protein
# Assay: SPR single cycle kinetics, IgG on Protein A chip, factor Bb analyte
# Method: In order to assess the binding of all humanized variants, single cycle kinetic analysis was performed on supernatants from transfected cell cultures. […] All single cycle kinetic experiments were run at 25° C. with HBS-P+running buffer (pH 7. 4) (GE Healthcare, Little Chalfont, UK).
# (§5) Antibodies were diluted in running buffer to a final concentration of 1 μg/ml, based on concentrations assessed by ELISA titer. At the start of each cycle, antibodies were loaded onto Fc2, Fc3 and Fc4 of the Protein A chip (GE Healthcare, Little Chalfont, UK). IgGs were captured at a flow rate of 10 μl/min to give an immobilization level (RL) of ˜63 RU, the theoretical value to obtain an Rmax of ˜50 RU. The surface was then allowed to stabilize. Single cycle kinetic data was obtained with factor Bb (CompTech, Tyler, USA) as the analyte at a flow rate of 30 μl/min to minimize any potential mass transport limitations. Multiple repeats with the reference chimeric antibody were performed to check the stability of the surface and analyte over the kinetic cycles. The signal from the reference channel Fc1 (no antibody) was subtracted from that of Fc2, Fc3 and Fc4 to correct for differences in non-specific binding to a reference surface. A four point, two-fold dilution range from 0. 78 nM to 6. 25 nM factor Bb without regeneration between each concentration was used. The association phase for the four injections of increasing concentrations of factor Bb was monitored for 200 seconds each time and a single dissociation phase was measured for 200 seconds following the last injection of factor Bb. Regeneration of the Protein A surface was conducted using two injections of 10 mM glycine-HCL pH 1. 5.
# Single cycle kinetics using cell culture supernatants were performed as described above.
Kd,koff,kon,Binder
2.22 nM,0.000859 s⁻¹,387000 M⁻¹ s⁻¹,B2
3.51 nM,0.00221 s⁻¹,630000 M⁻¹ s⁻¹,B3
2.34 nM,0.000903 s⁻¹,386000 M⁻¹ s⁻¹,B4
2.42 nM,0.0117 s⁻¹,4.83e+06 M⁻¹ s⁻¹,B5
3.84 nM,0.00158 s⁻¹,412000 M⁻¹ s⁻¹,B6

# Biological target: T1, Homo sapiens factor Bb protein
# Assay: SPR multi-cycle kinetics, IgG on Protein A chip, factor Bb analyte
# Method: as §3, §4
Kd,koff,kon,Binder
2.14 nM,0.000805 s⁻¹,376000 M⁻¹ s⁻¹,B2
5.7 nM,0.00124 s⁻¹,218000 M⁻¹ s⁻¹,B3
2.61 nM,0.000841 s⁻¹,322000 M⁻¹ s⁻¹,B4
9.51 nM,0.00211 s⁻¹,222000 M⁻¹ s⁻¹,B5
5.17 nM,0.0013 s⁻¹,251000 M⁻¹ s⁻¹,B6

# Biological target: T1, Homo sapiens factor Bb protein
# Assay: cell-based or functional assay
row,AP Assay IC50,Binder
1,22 nM,B2
2,21 nM,B3
3,23 nM,B4
4,25 nM,B5
5,19 nM,B6

# Biological target: T1, Homo sapiens factor Bb protein
# Assay: SPR single cycle kinetics; ratio against VH0/Vκ0
# Method: All single cycle kinetic experiments were run at 25° C. with HBS-P+running buffer (pH 7. 4) (GE Healthcare, Little Chalfont, UK).
# as §5
# Single cycle kinetics using cell culture supernatants were performed as described above. […] The relative KD was calculated by dividing the KD of the VH0/Vκ0 reference antibody by that of the humanized variant assayed in the same experiment.
row,Relative KD,Binder
1,1.25,B2
2,1.98,B3
3,1.32,B4
4,1.37,B5
5,2.17,B6
